Measured values taken from publication PMC10249358, “Elucidation of Short Linear Motif-Based Interactions of the FERM Domains of Ezrin, Radixin, Moesin, and Merlin” (Biochemistry, 2023).
No end group written: not given here. *: point of attachment. FITC = O=C1OC2(c3ccc(O)cc3Oc3cc(O)ccc32)c2ccc(NC(=S)*)cc21

What was measured:
Conditions in all cases: both partners purified
[1] = target: T1, moesin FERM domain (UniProt P26038 2-295); experiment: fluorescence polarisation; competition: precomplex of FERM domain (2 x KD) and FITC-KIRREL3(637–652) probe, titrated with unlabeled peptide; constants printed as KD′; FP buffer
T1 construct: moesin FERM domain from pGEX4T Moesin FERM; also called WT moesin; source: E. coli BL21(DE3), purified (GSH sepharose, thrombin cleavage on beads, benzamidine column, gel filtration); not shown: GST, N-terminal, cleaved

[2] = target: T2, radixin FERM domain (as used in FP) (human, UniProt P35241 5-295); experiment: fluorescence polarisation; direct binding: 5 nM FITC-labeled probe peptide titrated with FERM domain; 20 mM HEPES pH 7.4, 150 mM NaCl, 0.05% Tween-20, 3 mM DTT; quadratic equation for 1:1 binding
T2 construct: human radixin FERM domain, amino acids 5-295, synthetic gene in pETM33; source: E. coli BL21(DE3), purified (GSH sepharose)

[3] = target: T3, merlin FERM domain (human, UniProt P35240 22-312); experiment: as above
T3 construct: human merlin (NF2) FERM domain, amino acids 22-312, synthetic gene in pETM33; source: E. coli BL21(DE3), purified (GSH sepharose, HRV3C cleavage, reverse Ni-IMAC); not shown: His, N-terminal, cleaved; GST, N-terminal, cleaved
T3 sequence (looked up): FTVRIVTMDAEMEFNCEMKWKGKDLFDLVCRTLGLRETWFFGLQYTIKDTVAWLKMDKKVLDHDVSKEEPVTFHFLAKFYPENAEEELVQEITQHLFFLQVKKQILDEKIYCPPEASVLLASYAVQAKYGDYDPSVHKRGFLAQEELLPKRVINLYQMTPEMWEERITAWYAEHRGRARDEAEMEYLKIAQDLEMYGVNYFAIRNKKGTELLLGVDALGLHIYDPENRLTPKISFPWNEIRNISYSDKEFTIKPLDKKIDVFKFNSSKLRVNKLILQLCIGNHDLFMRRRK

[4] = target: T4, ezrin FERM domain (as used in FP) (UniProt P15311 2-296); experiment: fluorescence polarisation; competition: precomplex of FERM domain (2 x KD) and FITC-KIRREL3(637–652) probe, titrated with unlabeled peptide; constants printed as KD′; FP buffer
T4 construct: ezrin FERM domain from pGEX4T1 Ezrin FERM; source: E. coli BL21(DE3), purified (GSH sepharose)

[5] = target: T2, radixin FERM domain (as used in FP); experiment: as above
[6] = target: T5, Moesin FERM M285A/H288A (human, UniProt P26038 2-295, M285A | H288A); experiment: fluorescence polarisation; direct binding: FITC-labeled probe peptide (5 nM) titrated with a dilution series of moesin FERM domain; 20 mM HEPES, pH 7.4, 150 mM NaCl, 0.05% Tween-20, 3 mM DTT; quadratic equation for 1:1 binding
T5 construct: moesin (P26038) FERM domain from pGEX4T Moesin FERM (Addgene plasmid # 1163); also called moesin FERM domain (M285A and H288A); moesin FERM M285/H288A; source: E. coli BL21(DE3), purified (GSH sepharose, thrombin cleavage, HiTrap benzamidine)

[7] = target: T6, Moesin FERM K211A/I238A (human, UniProt P26038 2-295, K211A | I238A); experiment: as above
T6 construct: moesin (P26038) FERM domain from pGEX4T Moesin FERM (Addgene plasmid # 1163); also called moesin K211A/I238A; double mutant moesin FERM K211A/I238A; source: E. coli BL21(DE3), purified (GSH sepharose, thrombin cleavage, HiTrap benzamidine)

[8] = target: T1, moesin FERM domain; experiment: fluorescence polarisation; competition: precomplex of moesin FERM and FITC-ZNF622 probe, titrated with unlabeled peptide; constants printed as KD′; FP buffer (for HIF1A the text names FITC-NOP53 as probe, the table's footnote FITC-ZNF622)
[9] = target: T7, moesin FERM K211A/I238A (UniProt P26038 2-295, K211A | I238A); experiment: fluorescence polarisation; direct binding: 5 nM FITC-labeled probe peptide titrated with FERM domain; 20 mM HEPES pH 7.4, 150 mM NaCl, 0.05% Tween-20, 3 mM DTT; quadratic equation for 1:1 binding
T7 construct: moesin FERM domain from pGEX4T Moesin FERM, double mutant; tag removal is told for moesin FERM in FP in general; also called moesin K211A/I238A; source: E. coli BL21(DE3), purified; not shown: GST, N-terminal, cleaved

[10] = target: T8, moesin FERM M285A/H288A (UniProt P26038 2-295, M285A | H288A); experiment: as above
T8 construct: moesin FERM domain from pGEX4T Moesin FERM, double mutant; tag removal is told for moesin FERM in FP in general; also called moesin FERM M285/H288A; source: E. coli BL21(DE3), purified; not shown: GST, N-terminal, cleaved
T8 sequence (P26038 2-295 M285A/H288A): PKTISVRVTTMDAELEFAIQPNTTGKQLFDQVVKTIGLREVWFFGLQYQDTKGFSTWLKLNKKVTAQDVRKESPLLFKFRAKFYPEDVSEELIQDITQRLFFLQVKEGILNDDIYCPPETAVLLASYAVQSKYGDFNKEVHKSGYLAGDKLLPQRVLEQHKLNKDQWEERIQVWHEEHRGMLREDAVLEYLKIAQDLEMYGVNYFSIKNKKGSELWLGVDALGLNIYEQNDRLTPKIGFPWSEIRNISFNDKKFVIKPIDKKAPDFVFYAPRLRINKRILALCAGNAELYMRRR

T5 sequence (P26038 2-295 M285A/H288A): as above
T6 sequence (P26038 2-295 K211A/I238A): as the sequence (P26038 2-295 M285A/H288A) above, with K210A, I237A, A284M, A287H counted along it
T1 sequence (P26038 2-295): as the sequence (P26038 2-295 M285A/H288A) above, with A284M, A287H counted along it
T2 sequence (P35241 5-295): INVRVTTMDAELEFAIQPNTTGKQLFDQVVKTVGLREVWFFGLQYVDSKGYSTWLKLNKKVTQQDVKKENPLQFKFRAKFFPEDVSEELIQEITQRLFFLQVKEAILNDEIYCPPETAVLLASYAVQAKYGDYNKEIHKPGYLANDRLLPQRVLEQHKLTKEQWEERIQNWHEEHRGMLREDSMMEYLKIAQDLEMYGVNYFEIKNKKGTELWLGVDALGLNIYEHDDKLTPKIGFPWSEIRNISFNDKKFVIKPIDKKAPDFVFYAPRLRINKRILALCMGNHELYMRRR
T4 sequence (P15311 2-296): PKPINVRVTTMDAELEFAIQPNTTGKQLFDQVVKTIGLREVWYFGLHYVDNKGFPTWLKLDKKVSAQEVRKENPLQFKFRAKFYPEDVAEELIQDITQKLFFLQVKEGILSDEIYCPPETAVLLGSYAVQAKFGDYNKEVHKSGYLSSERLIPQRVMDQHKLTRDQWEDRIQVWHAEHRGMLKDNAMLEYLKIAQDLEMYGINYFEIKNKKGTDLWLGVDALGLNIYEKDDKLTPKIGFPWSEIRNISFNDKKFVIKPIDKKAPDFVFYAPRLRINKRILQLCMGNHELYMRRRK
T7 sequence (P26038 2-295 K211A/I238A): as the sequence (P26038 2-295 M285A/H288A) above, with K210A, I237A, A284M, A287H counted along it

B1: PDCD6IP(853–868) peptide (peptide)
peptide: SYPFPQPPQQSYYPQQ
notes: PDCD6IP, human, residues 853-868; source: synthetic peptide (GeneCust)
Kd [1]: 35.2 ± 0.2 µM

B2: FITC-ZNF622(341–356) peptide (peptide, UniProt Q969S3 341-356, looked up)
peptide: LEFADFYDFRSSYPDH
modifications: not fully specified (N-terminus); also: FITC label (position not given here)
notes: also called FITC-ZNZ622; source: synthetic peptide (GeneCust)
binding result [2]: binds
binding result [3]: binds

B3: GCM2(274–289) peptide (peptide)
peptide: SYELANPGYTNSSPYP
notes: GCM2, human, residues 274-289; source: synthetic peptide (GeneCust)
Kd [1]: 38 ± 3 µM
Kd [4]: 205 ± 11 µM
Kd [5]: 85 ± 3 µM

B4: ICAM3(516–531) peptide (peptide)
peptide: SGSYHVREESTYLPLT
notes: ICAM3, human, residues 516-531; source: synthetic peptide (GeneCust)
Kd [1]: 113 ± 3 µM

B5: FITC-EBP50 343-358 peptide (peptide)
peptide: {FITC}-APQMDWSKKNELFSNL-OH
modifications: not fully specified
notes: also called NHERF1; source: synthetic peptide (GeneCust)
Kd [6]: 3.1 ± 0.2 µM
Kd [7]: 114 ± 7 µM

B6: FITC-LATS1 73-88 peptide (peptide)
peptide: THHKALQEIRNSLLPF
modifications: also: FITC label, position not given here
notes: LATS1, residues 73-88; source: synthetic peptide (GeneCust)
Kd [6]: 1.3 ± 0.1 µM
Kd [7]: 7.4 ± 0.5 µM

B7: FITC-TBX4 428-443 peptide (peptide)
peptide: SYSVQTMETVPYQPFP
modifications: also: FITC label, position not given here
notes: TBX4 (T-box transcription factor TBX4), residues 428-443; source: synthetic peptide (GeneCust)
Kd [6]: 6.9 ± 0.4 µM
Kd [7]: 2.17 ± 0.31 µM

B8: FITC-NOP53 192-207 peptide (peptide)
peptide: FYDLWASDNPLDRPLV
modifications: also: FITC label, position not given here
notes: NOP53, residues 192-207; source: synthetic peptide (GeneCust)
Kd [6]: 2.2 ± 0.1 µM
Kd [7]: 42 ± 1 µM

YYSVNTFKEHHSTPTI (also: FITC label, position not given here, source: synthetic peptide (GeneCust)) [FITC-KIRREL3 637-652 peptide]
Kd [6]: 0.84 ± 0.05 µM
Kd [7]: 0.17 ± 0.02 µM

LEFADFYDFRSSYPDH (also: FITC label, position not given here, source: synthetic peptide (GeneCust)) [FITC-ZNF622 341-356 peptide]
Kd [6]: 1.3 ± 0.1 µM
Kd [7]: 46 ± 2 µM

B9: RIMS1(1405–1420) peptide (peptide)
peptide: MYTLEHNDGSQSDTAV
notes: RIMS1, human, residues 1405-1420; source: synthetic peptide (GeneCust)
Kd [1]: 564 ± 5 µM

B10: BOC(1000–1015) peptide (peptide)
peptide: LYTLPDDSTHQLLQPH
notes: BOC, human, residues 1000-1015; source: synthetic peptide (GeneCust)
Kd [1]: 18 ± 1 µM
Kd [4]: 8 ± 0.1 µM
Kd [5]: 17 ± 2 µM

YYSVNTFKEHHSTPTI (peptide, UniProt Q8IZU9 637-652, looked up, also: FITC label, position not given here, source: synthetic peptide (GeneCust)) [FITC-KIRREL3(637–652) peptide]
binding result [2]: binds

B11: HIF1A(37–52) peptide (peptide)
peptide: FYELAHQLPLPHNVSS
notes: HIF1A, human, residues 37-52; source: synthetic peptide (GeneCust)
Kd [8]: 3 ± 0.4 µM

B12: FITC-LATS1(73–88) peptide (peptide)
peptide: THHKALQEIRNSLLPF
modifications: also: FITC label, position not given here
notes: LATS1, human, residues 73-88; also called LATS(73–88); source: synthetic peptide (GeneCust)
binding result [2]: binds
binding result [3]: binds

B13: RRBP1(1365–1380) peptide (peptide)
peptide: RAATRLQELLKTTQEQ
notes: RRBP1, human, residues 1365-1380; also called RRBP1 peptide; source: synthetic peptide (GeneCust)
Kd [3]: 9.7 ± 0.8 µM

B14: FITC-FAM83G(111–126) peptide (peptide, UniProt A6ND36 111-126, looked up)
peptide: AEPLPSLEYWPQKSDR
modifications: also: FITC label (position not given here)
notes: FAM83G, human, residues 111-126; source: synthetic peptide (GeneCust)
binding result [2]: binds

B15: CAMK2B(13–28) peptide (peptide)
peptide: EYQLYEDIGKGAFSVV
notes: CAMK2B, human, residues 13-28; source: synthetic peptide (GeneCust)
Kd [1]: 96 ± 4 µM
Kd [4]: 26 ± 0.6 µM
Kd [5]: 6.8 ± 0.4 µM

WSKKNELFSNL (peptide, UniProt O14745 348-358, looked up, also: FITC label, position not given here, source: synthetic peptide (GeneCust)) [FITC-EBP50(348–358) peptide]
binding result [9]: binds
binding result [10]: binds
binding result [2]: binds
binding result [3]: binds

B16: RORA(185–200) peptide (peptide)
peptide: TYNISANGLTELHDDL
notes: RORA, human, residues 185-200; source: synthetic peptide (GeneCust)
Kd [1]: 134 ± 3 µM

B17: MISP(595–610) peptide (peptide)
peptide: ITGSYSVSESPFFSPI
notes: also called MISP3 peptide; source: synthetic peptide (GeneCust)
Kd [1]: 2.3 ± 0.1 µM

B18: FITC-TBX4(428–443) peptide (peptide, UniProt P57082 428-443, looked up)
peptide: SYSVQTMETVPYQPFP
modifications: also: FITC label, position not given here
notes: T-box transcription factor TBX4, human, residues 428-443; source: synthetic peptide (GeneCust)
binding result [2]: binds

B19: FITC-NOP53(192–207) peptide (peptide)
peptide: FYDLWASDNPLDRPLV
modifications: also: FITC label, position not given here
notes: NOP53, human, residues 192-207; source: synthetic peptide (GeneCust)
binding result [2]: binds
binding result [3]: binds

B20: LATS1(421–436) peptide (peptide)
peptide: LYNISVPGLQTNWPQS
notes: LATS1, human, residues 421-436; source: synthetic peptide (GeneCust)
Kd [1]: 149 ± 5 µM
